From the Immune Epitope Database (IEDB)

What was measured:
Test in all cases: IEDB peptide-MHC binding, purified MHC/competitive/radioactivity; ≥ and ≤ were set here for values at or beyond the usual limits of such assays
Conditions in all cases: source organism: Bordetella pertussis
[1] = target: HLA-B*57:01
[2] = target: HLA-B*35:01
[3] = target: HLA-B*44:03
[4] = target: HLA-A*02:01
[5] = target: HLA-B*07:02

HVSKEEQYY
IC50 [1]: ≥ 70.4 µM | IC50 [2]: 69.9 µM

YIWGLYQTY
IC50 [3]: 0.471 µM

DATLVGAKF
IC50 [2]: 59.8 µM

LLGSHVARA
IC50 [4]: 2350 nM

ALAAIASAA
IC50 [4]: 12300 nM

KPDRAARVA
IC50 [5]: 461 nM

VEDIGGKNY
IC50 [3]: 16 µM

RTRGQARSG
IC50 [1]: 11.8 µM

HFIGYIYEV
IC50 [4]: 16.1 nM

QAIVVGKDL
IC50 [3]: 31.8 µM

YENKSSTPL
IC50 [3]: 37.5 µM

RVRALAWLL
IC50 [1]: 0.709 µM | IC50 [5]: 413 nM
